Laboratory results taken from patent publication US20200283521A1 (GRANULAR THERAPEUTICS, published 2020).

Experiments:
[1] = target: T1, human C-KIT, full length, on cells (human, UniProt P10721 26-976); experiment: flow cytometry, CHO-K1 transfectants
T1 construct: full-length cDNA stably transfected in CHO-K1; also used here for endogenous C-KIT of TF-1 cells; also called human C-KIT+ CHO-K1 cells; C-KIT on TF-1 cells

human C-KIT-Fc = target: T2, human C-KIT-Fc (human, UniProt P10721 26-524); experiment: direct titration ELISA on coated C-KIT-Fc, IgG1 format
T2 construct: also called biotinylated human C-KIT-Fc; not shown: Fc part not described

B1: MH5.33 (antibody, IgG1, V domains shown)
VH: QVQLVQSGAEVKKPGASVKVSCKASGYTFTNYYMNWVRQAPGQGLEWMGRIYPASGNTYYAQKFQGRVTMTRDTSTSTVYMELSSLRSEDTAVYYCARGVWYYDYWGQGTLVTVSS
VL: DIQMTQSPSSLSASVGDRVTITCRASQGIRTNLAWFQQKPGKAPKSLIYAASSLQSGVPSRFSGSGSGTDFTLTISSLQPEDFATYYCQQYANYPRTFGGGTKVEIK
notes: IgG1
[1]
  binding result: binds
Human C-KIT-Fc
  binding result: no binding (tested: 10 µg/ml)
